Assay results as given in the nanobody polyreactivity screen of Harvey et al. (2022).

Test: yeast display, Sf9 membrane polyspecificity reagent, FACS + sequencing; frameworks hold sequencing errors
Outline: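 Nanobodies came from a synthetic yeast display library in Saccharomyces cerevisiae BJ5465, induced with galactose for 36–48 hours and stained for 1 hour at 4 °C with 10% biotinylated, detergent-solubilized Sf9 membrane reagent. Cells were enriched on streptavidin microbeads and then FACS-sorted, with low and high (top ~1%) gates set on anti-HA fluorescence for expression and streptavidin fluorescence for reagent binding. Each polyreactivity label reflects the gate a clone came from. Genes were amplified by colony PCR, sequenced by MiSeq 2 × 250 and filtered by CDR length.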

Sequence	polyreactivity (PSR sort gate)
QVQLVESGGCLVQAGGSLRLSCAASGRTLDFNVLGWYRPAPGQERELVAAITWSGGSTYYADSVKGRFTISRDNAQNTVYLQMNSLKQEDTAGYYCAAKALYAYRLYDYSGQGTQVTVSS	high polyreactivity
QVQLVESGGCLVQAGGSLRLSCAASGRTSTGYSMGWYRQAPGKERELVAGIDKIGGRTYYADSVKGRFTISRDNAKNTVYLQMNSLKPEDTAVYYCAVKTSPRRYYWGQGTQVTVSS	high polyreactivity
QVQLVESGGCLVQAGGSLRLSCAASGSIFGAYVMGWYRQAPGKERELVAAITRRGGSTYYADSVKGRFTISRDNAKNTVYLQMNSLKPEDTAVYYCAARRGAGDGYWGQGTQVTVSS	high polyreactivity
QVQLVESGGCLVQAGGSLRLSCAASGSIFGENAMGWYRQAPGKERELVAAITSGGSTDYADSVKGRFTISRDNAKNTVYLQMNSLKTEDTAVYYCAASGRVGPGYWYDSWGQGTQVTVSS	low polyreactivity
QVQLVESGGCLVQAGGSLRLSCAASGSIFGVNAMGGYRQPPGKDRELVASITGGDSTNYADSVKGRFTISRDNAKNTVYLQMNSLKPEDTAVYYCAKDHYYRYEEGDYWGLGTQVTVSS	low polyreactivity
QVQLVESGGCLVQAGGSLRLSCAASGSIFLSNAMGWYRQAPGKERELVATIDDNGGSTYYADSVKGRFTISRDNAKNTVYLQMNSLKPEDTAVYYCAKQVRVWDLYYYLEEGYWGQGTQVTVSS	low polyreactivity
QVQLVESGGCLVQAGGSLRLSCAASGSIFLTYAMGWYIQAPGKERELVASSTGGGSTNYADSVKGRFTSSRDNAKNTVYLQRNSLKPEDTAVYYCAKKAIVSDQWDKYDYWGQGTQVTVSS	low polyreactivity
QVQLVESGGCLVQAGGSLRLSCAASGSIFRYYNMGWYRQAPGKERELVAVINWSGGSTYYADSVKWRFTISRDNAKNTVYLQMNSLKPEDCAVYYCAICFWRTRRYGADPRTKYDYWGLGTQVTVSS	high polyreactivity
QVQLVESGGCLVQAGGSLRLSCAASGSIFSWYGMSWYRQAPGKERELVAAITWGGGSTYYADSVKGRFTISRDNAKNSVYLQMNSLKPEDTAVYYCEVDYWGQCTQVTVSS	low polyreactivity
QVQLVESGGCLVQAGGSLRLSCAASGSIRSYAMGWYRQAPGKERELVAAITRSGGSTYYADSVKGRFTISRDNAKNTVYLPMKSLKPEDTAVYYCAARYTYSYPLFGSWGQGTQVTVSS	high polyreactivity
QVQLVESGGCLVQAGGSLRLSCAASGSSFTSNSMGWSRHAPGKERELVAAISSCGGSTYYADSVKGRFTISRDNATQTVYIQMNSLKPEDTAVYYCAADVHWPYRYDYWGQGTQVTVSS	low polyreactivity
QVQLVESGGCLVQAGGSLRLSCAASGSTFGLYAKGLYRQAPGTEREFVAAITSTGGSTYFADSVKGRFTISRDNAQNTVYLQLNSLKPEDTAVYDSYADFFVWRYPHYLIFGYWGQGTQVTVSS	low polyreactivity
QVQLVESGGCLVQAGGSLRLSCAASGSTFGYNTMGWYRQAPGKERELDAAITGTGRTNYADSVKGRFTISRDNAKNNVYLQMYSLKPEDTAVYYCNARQAGTRYKYGYYGRYYWGHGTQVTVSS	high polyreactivity
QVQLVESGGCLVQAGGSLRLSCAASGSTFNWNAMGWYRQAPGKERELVAAITSSGARTRYADSVKGRFTISRDNAKNTVYLQMNSLKPEDTAVYYCAAYVYISPSGYYYWGLGTQVTVSS	low polyreactivity
QVQLVESGGCLVQAGGSLRLSCAASGSTFRFYAMGWYRQAPGKERELVATISSSGGTTYYADSVKGRFTISRDNAKNTVYLQMNSLKPEDTAVSYCAKDAFGWGRVYYYRSGYWGHGTQVTVSS	high polyreactivity
QVQLVESGGCLVQAGGSLRLSCAASGSTFRYYAMGWYRQAPGKESELVARITSRAGRTYYADSVKGRFTISRDIAKNTVYLQMNSLKPEDTAVYFCNTRDFSGYVHALSLYDYWGQGTQVTVSS	high polyreactivity
QVQLVESGGCLVQAGGSLRLSCAASGSTFVYNTMGWYRQAPGKERELVASISSDGNTYYADSVKGRFTISRDNAKNTVYLQMNSLKPEDTAVYYCAARYYYDWRFVGYDYWGQGTQVTVSS	low polyreactivity
QVQLVESGGCLVQAGGSLRLSCAASGYIFQWYDMGWYRPAPGKERELVAAISVTTGSTYYADSVKGRFTISRDNAQKTVYLQMNSLKPEDTAVYYCAAVSWYRHDMYYWGHGTQVTVSS	low polyreactivity
QVQLVESGGCLVQAGGSLRLSCAASRRIYYYTMGWYRQPPGKERELGATITSSGSSTYYADSVKGRFTISRDNAMNTVYLQMNSLKPEDTAVYYCAAGDRRYQRRYYYWGQGTQVTVSS	high polyreactivity
QVQLVESGGCLVQAGGSLRLSCAGSGSIFDGYAMGWYRQAPGKERELVADINNGADTYYADSVKGRFTISRDKAKNTVYLQMNTLKTEDTAVYYCAARYGTDTDIQNVARYDYWGQGTQVTVSS	low polyreactivity
QVQLVESGGCLVQAGGSLRLSCASSGITFFEYAMGCYRQAPGKERELVAVITSGGSTNYADSVKGRFTISRDNAKNTVYLQMNSLKPEDTAVYYCNARVVKYRWWYDYYYWGQGTQVTVSS	low polyreactivity
QVQLVESGGCLVQAGGSLRLSCDASGSIFYRNVIGWYRQAPGKERELVATISRGGTTNYADSVKGRFTISRDNAKNTVYLQMNSLKPEDTAVYYCAADASSKLYDYWGQGTQVTVSS	low polyreactivity
QVQLVESGGCLVQAGGSLRLSCPASGSTIGKYAMGWYRQAPRKERELFATITVSGGNTNYADSVKGRITISRDNAKITVYLQMNSLKPEDTAVYYCAARKYVAGHKYIMKYWGQGTQVTVSS	low polyreactivity
QVQLVESGGCLVQAGGSLRLSCSASGRTFNWKAMGWYRPAPGKERELVAVITSSGTRTYYADSVKGRFTISRDNAKNTVSLQMNSLKPEDTAVYYCANGETYTGPNSRYGQWKKVYYWGQGTQVTVSS	low polyreactivity
QVQLVESGGCLVQAGGSLRLSSAASGFIFYYNAMGWYRQEPGKESELVATIRGSGGSTYYADSVKGRFTISRDNAKNTVYLQMNSLKPEDTAVYYCAASVQYRRLKKFYYWGQGTQVTVSS	high polyreactivity
QVQLVESGGCLVQAGGSLRLSSAASGITFYLYAMGWYRKAPGKVRELVATISRSGGSTYADSVKGRFTISRDNAKNTVYLQMHSMKPEDTAVYYCNADLLSTGFIAYDYWGQGTQVTVSS	low polyreactivity
QVQLVESGGCLVQAGGSLRLSSAPSGSTFPVNAMGWYRQAAGKERELVAAITYRDGDTYYADSVKGRFTISRDYAKNTVYLQMNSLKPEDTAVYYCNADVGRHGKNSHMDYWGHGTQVTVSS	low polyreactivity
QVQLVESGGCLVQAGGTLRLSCAASGFTFGNNGMGWYRQAPGKERELVATISWSGGSTDADSVKGRFTISRDNAKNTVYLQMNSLKPEDTAVSYCAARPRWYFFSYGRQDDGSWGQGTQVTVSS	low polyreactivity
QVQLVESGGCLVQAGGTLRLSCAASGFTIRSNAMGWYRQAPGKERELVADISHGGGTSYADSVKGRFTISRDNAKNTVYLQRNSLKPEDTAVYYCAADLSTYVNYWWEYYYWGQGSQVTVSS	low polyreactivity
QVQLVESGGCLVQAGGTLRLSCAASGSIFWAYAMGWYRQAPGKERELVAAISRGGTTTYADSVKGRFTISRDNAKNTVYLQMNSLKPEDTAVYYCARRAVYSKRRYDYWGQGTQVTVSS	low polyreactivity
